# Biological target: T1, TRBP WT (nonphosphorylated) (UniProt Q15633 1-366)
# T1 sequence: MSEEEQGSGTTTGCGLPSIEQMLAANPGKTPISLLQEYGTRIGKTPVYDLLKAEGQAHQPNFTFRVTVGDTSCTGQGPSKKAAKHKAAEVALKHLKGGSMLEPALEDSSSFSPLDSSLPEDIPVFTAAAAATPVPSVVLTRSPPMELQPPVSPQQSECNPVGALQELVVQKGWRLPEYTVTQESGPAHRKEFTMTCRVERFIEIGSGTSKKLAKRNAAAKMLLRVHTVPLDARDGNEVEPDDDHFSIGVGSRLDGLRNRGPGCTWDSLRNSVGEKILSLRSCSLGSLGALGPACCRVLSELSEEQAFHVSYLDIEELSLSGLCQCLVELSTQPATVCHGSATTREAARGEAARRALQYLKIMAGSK
# Test: EMSA; 20 mM HEPES pH 7.5, 150 mM NaCl, 1.5 mM MgCl2, 2 mM DTT, 30 C, 30 min; dsRNA 60 nM, TRBP 0-400 pmol; 5% acrylamide gel
# Settings: protein: recombinant; label: none (SYBR Gold stain); blunt
binder,measurement,value
TMEV 45-mer dsRNA (dsRNA) RNA 1: UUACUAUUGACACUAUGGCUUGCAAACAUGGAUACCCAGAUGUGU RNA 2: ACACAUCUGGGUAUCCAUGUUUGCAAGCCAUAGUGUCAAUAGUAA,binding result,binds
